Assay [1] concerns the target recombinant human Fc gamma RIIIa (CD16a) 158V (human, UniProt P08637 17-208).
The target in assay [2] is recombinant human Fc gamma RIIIb (CD16b) (human, UniProt O75015 17-200).
In assay [3] the target is recombinant human Fc gamma RIIIa (CD16a) 158F (human, UniProt P08637 17-208).
The target in assay [4] is recombinant human Fc gamma RI (CD64) (human, UniProt P12314 16-288).
Assay [5] deals with T1, recombinant human Fc gamma RIIa (CD32a) 131R (human, UniProt P12318 36-218).
T1 sequence (looked up): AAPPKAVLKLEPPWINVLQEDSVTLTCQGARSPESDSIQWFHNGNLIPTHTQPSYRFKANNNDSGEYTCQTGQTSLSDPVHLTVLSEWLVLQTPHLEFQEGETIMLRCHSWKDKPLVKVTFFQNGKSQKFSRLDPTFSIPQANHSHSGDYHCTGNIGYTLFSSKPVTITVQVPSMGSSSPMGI

Assay [6] concerns the target T2, recombinant human Fc gamma RIIb/c (CD32b/c) (human, UniProt P31994 46-217).
T2 sequence (looked up): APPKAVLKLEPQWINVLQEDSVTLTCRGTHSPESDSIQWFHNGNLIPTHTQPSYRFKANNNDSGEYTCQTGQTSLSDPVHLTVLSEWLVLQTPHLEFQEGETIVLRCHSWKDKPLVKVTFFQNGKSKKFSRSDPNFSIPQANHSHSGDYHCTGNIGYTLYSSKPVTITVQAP

Chain of recombinant human Fc gamma RIIIa (CD16a) 158V (P08637 17-208 F176V limits assumed): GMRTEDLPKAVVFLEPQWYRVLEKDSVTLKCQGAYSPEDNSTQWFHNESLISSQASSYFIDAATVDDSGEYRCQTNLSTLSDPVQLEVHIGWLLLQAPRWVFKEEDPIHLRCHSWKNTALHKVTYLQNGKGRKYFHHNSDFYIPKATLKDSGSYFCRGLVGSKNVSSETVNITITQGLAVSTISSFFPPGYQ
Chain of recombinant human Fc gamma RIIIa (CD16a) 158F (P08637 17-208 limits assumed): as the sequence (P08637 17-208 F176V limits assumed) above, with V160F counted along it
Chain of recombinant human Fc gamma RIIIb (CD16b) (O75015 17-200 limits assumed): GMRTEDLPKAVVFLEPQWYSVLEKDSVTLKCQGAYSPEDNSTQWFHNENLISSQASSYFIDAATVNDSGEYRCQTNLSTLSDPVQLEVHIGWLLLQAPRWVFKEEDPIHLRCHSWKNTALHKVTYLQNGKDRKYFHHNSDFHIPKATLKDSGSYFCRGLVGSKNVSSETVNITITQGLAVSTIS
Chain of recombinant human Fc gamma RI (CD64) (P12314 16-288 limits assumed): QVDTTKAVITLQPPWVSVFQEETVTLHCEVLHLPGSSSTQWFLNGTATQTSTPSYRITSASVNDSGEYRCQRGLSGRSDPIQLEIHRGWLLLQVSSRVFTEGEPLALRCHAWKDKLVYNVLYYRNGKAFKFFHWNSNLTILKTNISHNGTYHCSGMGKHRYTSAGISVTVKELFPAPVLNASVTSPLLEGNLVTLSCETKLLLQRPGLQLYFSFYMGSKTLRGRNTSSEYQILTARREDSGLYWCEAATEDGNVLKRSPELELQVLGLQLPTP

B1: HB2174 (bispecific antibody, human IgG1, kappa)
heavy 1: QVQLVQSGGGVVQPGRSLRLSCAASGVSLPDYGVSWVRKAPGKGLEWVAVIWGSETTYYNSALKSRFTISRDNSKNTLYLQMSSLRAEDTAVYYCAKHYYYGGSFAMDYWGQGTLVTVSSASTKGPSVFPLAPSSKSTSGGTAALGCLVKDYFPEPVTVSWNSGALTSGVHTFPAVLQSSGLYSLESVVTVPSSSLGTQTYICNVNHKPSNTKVDKKVEPKSCTDWSPYADQSIKVRISLKSALGDKAYEWNDNEMYLFRSSVAYAMRQYFLKVKNQMILFGEEDVRVANLKPRISFNFFVTAPKNVSDIIPRTEVEKAIRMSRSRINDAFRLNDNSLEFLGIQPTLGPPNQPPVSTSTSPTRSMAPGAVHLPQPVSTRDKTHTCPPCPAPELLGGPSVFLFPPKPKDTLMISRTPEVTCVVVDVSHEDPEVKFNWYVDGVEVHNAKTKPREEQYNSTYRVVSVLTVLHQDWLNGKEYKCKVSNKALPAPIEKTISKAKGQPREPQVCTLPPSRDELTKNQVSLSCAVKGFYPSDIAVEWESNGQPENNYKTTPPVLDSDGSFFLVSKLTVDKSRWQQGNVFSCSVMHEALHNRFTQKSLSLSPG
heavy 2: not shown
light 1: DIQMTQSPSSLSASVGDRVTITCRASQDISKYLNWYQEKPGKAIKLLIYHTSRLHSGVPSRFSGSGSGTDFTLTISSLQPEDFATYYCQQGATLPYTFGPGTKLEIKRTVAAPSVFIFPPSDEQLKSGTASVKCLLNNFYPREAKVQWKVDNALQSGNSQESVTEQDSKDSTYSLSSTLTLSKADYEKHKVYACEVTHQGLSSPVTKSFNRGEC
light 2: QVQLQQPGAELVKPGASVKMSCKASGYTFTSYNMHWVKETPGRGLEWIGAIYPGNGDTSYNQKFKGKATLTADKSSSTAYMQLSSLTSEDSAVYYCARSTYYGGDWYFNVWGAGTLVTVSSASVAAPSVFIFPPSDEQLKSGTASVECLLNNFYPREAKVQWKVDNALQSGNSQESVTEQDSKDSTYSLSSTLTLSKADYEKHKVYACEVTHQGLSSPVTKSFNRGEC
By Kd is commonly meant the free concentration of one partner at which half of the binding sites on the other are occupied at equilibrium, for simple one-to-one binding. As to B1, the Kd in assay [1] was 497 nM; in assay [2], 8910 nM; in assay [3], 2310 nM; in assay [4] it was 0.118 nM; in assay [5], 901 nM; in assay [6], 4480 nM.

B2: Rituximab-S239D/I332E (antibody, human IgG1, kappa)
heavy: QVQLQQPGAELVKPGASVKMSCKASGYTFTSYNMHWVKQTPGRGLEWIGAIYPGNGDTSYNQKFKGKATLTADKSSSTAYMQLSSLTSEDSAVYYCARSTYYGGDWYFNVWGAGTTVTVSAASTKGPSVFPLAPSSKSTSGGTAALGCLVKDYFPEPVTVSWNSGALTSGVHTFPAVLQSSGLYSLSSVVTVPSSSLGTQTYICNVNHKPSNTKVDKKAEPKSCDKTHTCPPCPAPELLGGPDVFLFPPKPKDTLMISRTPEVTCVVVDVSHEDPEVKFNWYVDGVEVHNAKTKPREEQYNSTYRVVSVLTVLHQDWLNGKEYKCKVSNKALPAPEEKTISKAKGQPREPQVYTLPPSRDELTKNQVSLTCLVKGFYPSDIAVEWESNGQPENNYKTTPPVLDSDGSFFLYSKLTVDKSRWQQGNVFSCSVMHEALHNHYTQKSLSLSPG
light: QIVLSQSPAILSASPGEKVTMTCRASSSVSYIHWFQQKPGSSPKPWIYATSNLASGVPVRFSGSGSGTSYSLTISRVEAEDAATYYCQQWTSNPPTFGGGTKLEIKRTVAAPSVFIFPPSDEQLKSGTASVVCLLNNFYPREAKVQWKVDNALQSGNSQESVTEQDSKDSTYSLSSTLTLSKADYEKHKVYACEVTHQGLSSPVTKSFNRGEC
For B2, the Kd in assay [1] was 4.33 nM; in assay [2], 66.8 nM; in assay [3] it was 17.6 nM; in assay [4], 0.0266 nM; in assay [5], 76.8 nM; in assay [6], 138 nM.
